In patent publication US20110243962A1 (GENEURO, published 2011):

Legend:
[1] = target: T1, MSRV complete ENV protein (ENV-T), recombinant from E. coli (MSRV (Multiple Sclerosis associated …)); assay: ELISA; ENV-T 7A 1 ug/ml coated; mAb 0.125 ug/ml
T1 construct: also called ENV-T 7A; His-ENV-T
T1 chain: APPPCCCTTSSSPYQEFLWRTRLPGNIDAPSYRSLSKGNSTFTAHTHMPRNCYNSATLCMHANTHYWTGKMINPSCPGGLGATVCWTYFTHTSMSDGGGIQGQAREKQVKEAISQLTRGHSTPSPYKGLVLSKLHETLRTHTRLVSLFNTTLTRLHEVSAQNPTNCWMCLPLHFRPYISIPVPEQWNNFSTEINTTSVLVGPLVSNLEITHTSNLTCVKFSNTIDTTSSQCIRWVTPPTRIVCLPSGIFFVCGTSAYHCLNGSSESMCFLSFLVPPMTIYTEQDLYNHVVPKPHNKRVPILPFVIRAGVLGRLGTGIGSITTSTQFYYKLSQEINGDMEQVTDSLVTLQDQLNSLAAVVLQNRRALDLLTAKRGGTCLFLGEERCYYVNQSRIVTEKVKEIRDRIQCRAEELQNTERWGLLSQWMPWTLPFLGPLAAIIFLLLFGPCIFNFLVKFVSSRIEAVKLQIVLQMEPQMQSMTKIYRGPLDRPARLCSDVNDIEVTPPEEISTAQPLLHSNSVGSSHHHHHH
Method: (§1) Protocol: Incubation 2 h at 37° C. […] Revelation is made by adding OPD substrate and reading optic density with a spectrophotometer after 30 min (Washing steps with PBS are performed between every step).

[2] = target: T1, MSRV complete ENV protein (ENV-T), …; assay: ELISA; ENV-T 7A 1 ug/ml coated; mAb 0.0078 ug/ml
Method: as §1

[3] = target: T1, MSRV complete ENV protein (ENV-T), …; assay: ELISA; ENV 0.0078 ug/ml coated; mAb 1 ug/ml
Method: as §1

[4] = target: T1, MSRV complete ENV protein (ENV-T), …; assay: ELISA; coated ENV-T 7A 0.03125; ligand 1 microgram
Method: (§2) II-1d Direct ELISA on Microplates Coated with ENV Antigen (ENV-T or ENV-SU as Described Above) [0159] Microwells were coated with 100 μl per well of ENV antigen diluted in 50 mM Sodium Bicarbonate, pH 9.6. Plate were sealed and incubated 2 hours at 37° C. under light agitation. [0160] Microwells were washed 4 times with 250 μl per well of PBS (Phosphate Buffer Saline). After the last, plates were inverted and blotted on absorbent paper to remove any residual buffer. [0161] 100 μl per well of detection antibody according to the present invention (GNbAC1 or its Fab fragment) diluted in PBS+BSA 1% (PBS with 1% of Bovine Serum Albumin) were added. Plate were sealed and incubated 1 hour at room temperature under light agitation. […] Microwells were washed 4 times with 250 μl per well of PBS. After the last, plates were inverted and blotted on absorbent paper to remove any residual buffer. [0163] […] Plate were sealed and incubated 1 hour at room temperature under light agitation. [0164] Microwells were washed 6 times with 250 μl per well of PBS. After the last, plates were inverted and blotted on absorbent paper to remove any residual buffer. [0165] 100 μl par well of Substrate Solution (1 tablet of o-Phenylenediamine (OPD) diluted in 10 ml of 0.05M Phosphate Citrate Buffer pH5+10 μl H2O2 30%, prepared at the last moment) were added. Plates were incubated 30 min at room temperature in the dark. […] 50 μl per well of Stop Solution 2N H2SO₄ were added. [0167] The absorbance was read at 490 nm within 30 minutes of stopping reaction.
(§3) Env-T antigen is coated onto microtiter ELISA plate wells with serial dilutions ranging from 1 μg/ml to about 0.01 μg/ml.

[5] = target: T1, MSRV complete ENV protein (ENV-T), …; assay: ELISA; coated ENV-T 7A, concentration cell blank (top of series, 1 µg/ml per paragraph 198); ligand 1 microgram
Method: as §2, §3

[6] = target: T1, MSRV complete ENV protein (ENV-T), …; assay: ELISA; coated ENV-T 7A 0.25; ligand 1 microgram
Method: as §2, §3

[7] = target: T1, MSRV complete ENV protein (ENV-T), …; assay: ELISA; coated ENV-T 7A 0.5; ligand 1 microgram
Method: as §2, §3

[8] = target: T1, MSRV complete ENV protein (ENV-T), …; assay: ELISA; coated ENV-T 7A 0.125; ligand 1 microgram
Method: as §2, §3

[9] = target: T1, MSRV complete ENV protein (ENV-T), …; assay: ELISA; ENV 1 ug/ml coated; mAb 1 ug/ml
Method: as §1

[10] = target: T1, MSRV complete ENV protein (ENV-T), …; assay: ELISA; ENV-T 7A 1 ug/ml coated; mAb 0.25 ug/ml
Method: as §1

[11] = target: T2, MSRV ENV surface domain fragment (ENV-SU), recombinant from E. coli (MSRV (Multiple Sclerosis associated …)); assay: cell-based or functional assay
T2 chain: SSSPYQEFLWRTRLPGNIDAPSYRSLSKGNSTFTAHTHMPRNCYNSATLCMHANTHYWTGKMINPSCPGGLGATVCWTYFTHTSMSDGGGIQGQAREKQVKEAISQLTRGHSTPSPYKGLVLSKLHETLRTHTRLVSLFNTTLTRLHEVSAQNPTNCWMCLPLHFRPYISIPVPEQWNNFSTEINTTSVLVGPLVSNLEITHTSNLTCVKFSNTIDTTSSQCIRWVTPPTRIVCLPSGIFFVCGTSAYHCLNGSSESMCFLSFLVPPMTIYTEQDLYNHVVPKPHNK

[12] = target: T1, MSRV complete ENV protein (ENV-T), …; assay: ELISA; ENV 0.03125 ug/ml coated; mAb 1 ug/ml
Method: as §1

[13] = target: T1, MSRV complete ENV protein (ENV-T), …; assay: ELISA; ENV 0.5 ug/ml coated; mAb 1 ug/ml
Method: as §1

B1: GNbAC1 murine monoclonal antibody (IgG1/kappa) (antibody, V domains shown)
VH: QVQLQQSGAELVRPGAPVTLSCKASGYTFTDYEMHWVKQTPVHGLEWIGAVAPETGGTAYNQKFKGKATLTAAKSSSTAYMELRSLTSEDSAVYYCTSTVVPFAYWGQGTLVTVSA
VL: QIVLTQSPAIMSASPGEKVTISCSASSSVSYMYWYQQKPGSSPKAWIYRTSNLASGVPGRFSGSGSGTSYSLTISSMEAEDAATYYCQQYQSLPLTFGSGTKLEIK
notes: Murine IgG1/kappa from hybridoma; also called murine IgG1; muIgG
optic density [1]: 0.945 OD | optic density [2]: 0.13 OD | optic density [3]: 0.111 OD | optical density [4]: 1.34 OD | optical density [5]: 3 OD | optical density [6]: 2.84 OD | optical density [7]: 2.9 OD | optical density [8]: 2.29 OD | optic density [9]: 2.22 OD | optic density [10]: 1.21 OD | IFN-gamma Inhibition (%) [11]: 52% | IFN-gamma Response (%) [11]: 48% | IFN-gamma pg/ml, PBMC 72 h [11]: 270 pg/mL | IL-6 pg/ml, PBMC 72 h [11]: 42200 pg/mL | IL-6 Inhibition (%) [11]: 52% | IL-6 Response (%) [11]: 48% | optic density [12]: 0.367 OD | optic density [13]: 1.87 OD

B2: Chimeric GNb AC1 IgG4 (human IgG4 constant regions with murine VH and VL) (antibody, V domains shown)
VH: QVQLQQSGAELVRPGASVTLSCKASGYTFTDYEMHWVKQTPVHGLEWIGAVAPETGGTAYNQKFKGKATLTAAKSSSTAYMELRSLTSEDSAVYYCTSTVVPFAYWGQGTLVTVSA
VL: QIVLTQSPAIMSASPGEKVTISCSASSSVSYMYWYQQKPGSSPKAWIYRTSNLASGVPGRFSGSGSGTSYSLTISSMEAEDAATYYCQQYQSLPLTFGSGTKLEIKR
notes: also called GNbAC1 chimeric IgG4; GNbAC1-IgC4
optic density [1]: 1.81 OD | optic density [2]: 0.474 OD | optic density [3]: 0.313 OD | optical density [4]: 1.37 OD | optical density [5]: 3 OD | optical density [6]: 2.52 OD | optical density [7]: 2.89 OD | optical density [8]: 1.99 OD | optic density [9]: 2.67 OD | optic density [10]: 2.17 OD | IFN-gamma Inhibition (%) [11]: 43% | IFN-gamma Response (%) [11]: 57% | IFN-gamma pg/ml, PBMC 72 h [11]: 318 pg/mL | IL-6 pg/ml, PBMC 72 h [11]: 53000 pg/mL | IL-6 Inhibition (%) [11]: 40% | IL-6 Response (%) [11]: 60% | optic density [12]: 1.09 OD | optic density [13]: 2.26 OD

B3: Chimeric GNb AC1 IgG1 (human IgG1 constant regions with murine VH and VL) (antibody, V domains shown)
VH: QVQLQQSGAELVRPGAPVTLSCKASGYTFTDYEMHWVKQTPVHGLEWIGAVAPETGGTAYNQKFKGKATLTAAKSSSTAYMELRSLTSEDSAVYYCTSTVVPFAYWGQGTLVTVSA
VL: QIVLTQSPAIMSASPGEKVTISCSASSSVSYMYWYQQKPGSSPKAWIYRTSNLASGVPGRFSGSGSGTSYSLTISSMEAEDAATYYCQQYQSLPLTFGSGTKLEIK
notes: Human IgG1 heavy constant region and human kappa constant region, made in CHO cells; also called GNbAC1 chimeric IgG1; Ligand in human IgG1
optic density [1]: 2.44 OD | optic density [2]: 0.85 OD | optic density [3]: 0.642 OD | optical density [4]: 1.56 OD | optical density [5]: 3 OD | optical density [6]: 2.89 OD | optical density [7]: 3 OD | optical density [8]: 2.39 OD | optic density [9]: 2.52 OD | optic density [10]: 2.64 OD | IFN-gamma Inhibition (%) [11]: -9% | IFN-gamma Response (%) [11]: 109% | IFN-gamma pg/ml, PBMC 72 h [11]: 606 pg/mL | IL-6 pg/ml, PBMC 72 h [11]: 32900 pg/mL | IL-6 Inhibition (%) [11]: 63% | IL-6 Response (%) [11]: 37% | optic density [12]: 1.6 OD | optic density [13]: 2.53 OD
